Target: T1, soluble insulin receptor (IR) (R&D systems, 28-956) (UniProt P06213 28-956)
T1 construct: extracellular domain; Bought protein, coupled to a CM5 chip by NHS/EDC; It may be the same product as m8; also called soluble IR; immobilized soluble insulin receptor
Assay: SPR (Biacore), soluble IR coupled to CM5 chip, soluble SorCS1 as analyte

Kd: ~5 nM
B1: soluble full-length extracellular part of SorCS1 (receptor)
chain: SGADQEKAERGEGASRSPRGVLRDGGQQEPGTRERDPDKATRFRMEELRLTSTTFALTGDSAHNQAMVHWSGHNSSVILILTKLYDYNLGSITESSLWRSTDYGTTYEKLNDKVGLKTILSYLYVCPTNKRKIMLLTDPEIESSLLISSDEGATYQKYRLNFYIQSLLFHPKQEDWILAYSQDQKLYSSAEFGRRWQLIQEGVVPNRFYWSVMGSNKEPDLVHLEARTVDGHSHYLTCRMQNCTEANRNQPFPGYIDPDSLIVQDHYVFVQLTSGGRPHYYVSYRRNAFAQMKLPKYALPKDMHVISTDENQVFAAVQEWNQNDTYNLYISDTRGVYFTLALENVQSSRGPEGNIMIDLYEVAGIKGMFLANKKIDNQVKTFITYNKGRDWRLLQAPDTDLRGDPVHCLLPYCSLHLHLKVSENPYTSGIIASKDTAPSIIVASGNIGSELSDTDISMFVSSDAGNTWRQIFEEEHSVLYLDQGGVLVAMKHTSLPIRHLWLSFDEGRSWSKYSFTSIPLFVDGVLGEPGEETLIMTVFGHFSHRSEWQLVKVDYKSIFDRRCAEEDYRPWQLHSQGEACIMGAKRIYKKRKSERKCMQGKYAGAMESEPCVCTEADFDCDYGYERHSNGQCLPAFWFNPSSLSKDCSLGQSYLNSTGYRKVVSNNCTDGVREQYTAKPQKCPGKAPRGLRIVTADGKLTAEQGHNVTLMVQLEEGDVQRTLIQVDFGDGIAVSYVNLSSMEDGIKHVYQNVGIFRVTVQVDNSLGSDSAVLYLHVTCPLEHVHLSLPFVTTKNKEVNATAVLWPSQVGTLTYVWWYGNNTEPLITLEGSISFRFTSEGMNTITVQVSAGNAILQDTKTIAVYEEFRSLRLSFSPNLDDYNPDIPEWRRDIGRVIKKSLVEATGVPGQHILVAVLPGLPTTAELFVLPYQDPAGENKRSTDDLEQISELLIHTLNQNSVHFELKPGVRVLVHAAHLTAAPLVDLTPTHSG
